{
  "source": "the RNAGym collection of RNA variant scans (doi:10.7554/elife.80360)",
  "parents": {"B1": {"name": "Twister Ribozyme (parent)", "chain": "AACACUGCCAAUGCCGGUCCCAAGCCCGGAUAAAAGUGGAGGGGGCGG"}},
  "data": [
    {"variants_of": "B1", "assay": "self-cleavage, relative activity (ratio to wild type); higher = more cleavage; co-transcriptional", "values": [
      {"variant": "A23C G44A", "self-cleavage": 0.478},
      {"variant": "C8A G36A", "self-cleavage": 0.101},
      {"variant": "C5G C20G", "self-cleavage": 0.0308},
      {"variant": "G36A G45U", "self-cleavage": 0.579},
      {"variant": "G7A G28U", "self-cleavage": 0.28},
      {"variant": "A35G G48U", "self-cleavage": 0.882},
      {"variant": "C8G A32C", "self-cleavage": 0.323},
      {"variant": "G13A C25A", "self-cleavage": 0.0972},
      {"variant": "C19U A32G", "self-cleavage": 0.855},
      {"variant": "G7U G44A", "self-cleavage": 0.19},
      {"variant": "A1U G29C", "self-cleavage": 0.0876},
      {"variant": "G24U G47U", "self-cleavage": 0.0704},
      {"variant": "A35G G36U", "self-cleavage": 0.765},
      {"variant": "C5G G24U", "self-cleavage": 0.112},
      {"variant": "G24C G29C", "self-cleavage": 0.104},
      {"variant": "G29C A33U", "self-cleavage": 0.579},
      {"variant": "G24A U31A", "self-cleavage": 0.106},
      {"variant": "G17C A34G", "self-cleavage": 0.112},
      {"variant": "G41C G44U", "self-cleavage": 0.147},
      {"variant": "U12C A23G", "self-cleavage": 0.486},
      {"variant": "C5U A22U", "self-cleavage": 0.526},
      {"variant": "C9A A32G", "self-cleavage": 0.729},
      {"variant": "G28C U37A", "self-cleavage": 0.241},
      {"variant": "U12C C26U", "self-cleavage": 0.333},
      {"variant": "A22U C26U", "self-cleavage": 0.103},
      {"variant": "C27U G48C", "self-cleavage": 0.844},
      {"variant": "C5U G36U", "self-cleavage": 0.644},
      {"variant": "U12A A22U", "self-cleavage": 1.02},
      {"variant": "A34C A35U", "self-cleavage": 0.811},
      {"variant": "G38A G44C", "self-cleavage": 0.932},
      {"variant": "A1G G17C", "self-cleavage": 0.128},
      {"variant": "U31A G44U", "self-cleavage": 0.83},
      {"variant": "U18C C21A", "self-cleavage": 0.0881},
      {"variant": "G16C G41C", "self-cleavage": 0.0971},
      {"variant": "G13A A32U", "self-cleavage": 0.961},
      {"variant": "G28U G39A", "self-cleavage": 0.362},
      {"variant": "A32U G39A", "self-cleavage": 0.596},
      {"variant": "A32U G39U", "self-cleavage": 0.158},
      {"variant": "U6C G24C", "self-cleavage": 0.0688},
      {"variant": "C20G G41U", "self-cleavage": 0.0931},
      {"variant": "U6C A33U", "self-cleavage": 0.319},
      {"variant": "G13U C26U", "self-cleavage": 0.109},
      {"variant": "G38A G41A", "self-cleavage": 0.28},
      {"variant": "U18A G47U", "self-cleavage": 0.174},
      {"variant": "C14A C46A", "self-cleavage": 0.773},
      {"variant": "A10G G47A", "self-cleavage": 0.821},
      {"variant": "A11G A40U", "self-cleavage": 0.126},
      {"variant": "C25A A35C", "self-cleavage": 0.141},
      {"variant": "C9A G41A", "self-cleavage": 0.145},
      {"variant": "A2G A30G", "self-cleavage": 0.399},
      {"variant": "C25G G42U", "self-cleavage": 0.112},
      {"variant": "G24U A32G", "self-cleavage": 0.113},
      {"variant": "C8U C14G", "self-cleavage": 0.0673},
      {"variant": "C19A G48A", "self-cleavage": 0.161},
      {"variant": "C15A A30G", "self-cleavage": 0.492},
      {"variant": "G13A G41A", "self-cleavage": 0.157},
      {"variant": "A1U C3U", "self-cleavage": 0.0886},
      {"variant": "U12A G48U", "self-cleavage": 1.18},
      {"variant": "G39U C46U", "self-cleavage": 0.23},
      {"variant": "A2G G29C", "self-cleavage": 0.188},
      {"variant": "A10G U37G", "self-cleavage": 0.89},
      {"variant": "C15A G38A", "self-cleavage": 0.4},
      {"variant": "A30G G41U", "self-cleavage": 0.772},
      {"variant": "G7A A35U", "self-cleavage": 0.546},
      {"variant": "G39C G48U", "self-cleavage": 0.198},
      {"variant": "A1C C19G", "self-cleavage": 0.187},
      {"variant": "G24A G29C", "self-cleavage": 0.0767},
      {"variant": "G13U G36A", "self-cleavage": 0.13},
      {"variant": "C14U A34U", "self-cleavage": 0.951},
      {"variant": "A1G C3U", "self-cleavage": 0.294},
      {"variant": "A1G A33C", "self-cleavage": 0.462},
      {"variant": "A35C G42U", "self-cleavage": 0.415},
      {"variant": "C5U C21A", "self-cleavage": 0.126},
      {"variant": "A2U U37C", "self-cleavage": 0.114},
      {"variant": "G7A U12G", "self-cleavage": 0.381},
      {"variant": "A1C U12A", "self-cleavage": 0.223},
      {"variant": "A2G A11G", "self-cleavage": 0.164},
      {"variant": "C15U C26A", "self-cleavage": 0.126},
      {"variant": "A1U A23G", "self-cleavage": 0.0754},
      {"variant": "C5G A10U", "self-cleavage": 0.69},
      {"variant": "C25A U37A", "self-cleavage": 0.106},
      {"variant": "A10C C27G", "self-cleavage": 0.0988},
      {"variant": "C21A U31A", "self-cleavage": 0.0618},
      {"variant": "C3U C46U", "self-cleavage": 0.503},
      {"variant": "U37A C46A", "self-cleavage": 0.844},
      {"variant": "C27A G45C", "self-cleavage": 0.144},
      {"variant": "A2U G47C", "self-cleavage": 0.174},
      {"variant": "C14G G36U", "self-cleavage": 0.0782},
      {"variant": "C14G G28C", "self-cleavage": 0.106},
      {"variant": "C3A G41U", "self-cleavage": 0.0613},
      {"variant": "G38A G39C", "self-cleavage": 0.175},
      {"variant": "G38A G39U", "self-cleavage": 0.142},
      {"variant": "A1U C9A", "self-cleavage": 0.0518},
      {"variant": "U12A G44A", "self-cleavage": 1.04},
      {"variant": "G7U G39C", "self-cleavage": 0.0429},
      {"variant": "G7A U37A", "self-cleavage": 0.144},
      {"variant": "A2U A10G", "self-cleavage": 0.674},
      {"variant": "U18A C19U", "self-cleavage": 0.266},
      {"variant": "G16C A22G", "self-cleavage": 0.0711},
      {"variant": "G16C A22C", "self-cleavage": 0.198},
      {"variant": "U12A G16A", "self-cleavage": 1.03},
      {"variant": "U12C C15G", "self-cleavage": 0.0964},
      {"variant": "U18C G28A", "self-cleavage": 0.181},
      {"variant": "G16U G28A", "self-cleavage": 0.641},
      {"variant": "U31G G39C", "self-cleavage": 0.144},
      {"variant": "U31G G39A", "self-cleavage": 0.623},
      {"variant": "C8U U18A", "self-cleavage": 0.0657},
      {"variant": "G7U C21G", "self-cleavage": 0.0215},
      {"variant": "G7C G38C", "self-cleavage": 0.0787},
      {"variant": "G24U G48U", "self-cleavage": 0.0921},
      {"variant": "C20G G28U", "self-cleavage": 0.233},
      {"variant": "C8U C46G", "self-cleavage": 0.567},
      {"variant": "C19U G43C", "self-cleavage": 0.286},
      {"variant": "C3U G17C", "self-cleavage": 0.0683},
      {"variant": "C26U A40C", "self-cleavage": 0.131},
      {"variant": "A35U G44C", "self-cleavage": 0.974},
      {"variant": "G24A G36A", "self-cleavage": 0.0947},
      {"variant": "A4C C25A", "self-cleavage": 0.0458},
      {"variant": "C27U G42C", "self-cleavage": 0.19},
      {"variant": "C8U G24C", "self-cleavage": 0.0664},
      {"variant": "G39U G43C", "self-cleavage": 0.132},
      {"variant": "G29C A35C", "self-cleavage": 0.701},
      {"variant": "C27A G29C", "self-cleavage": 0.0808},
      {"variant": "A11C G44U", "self-cleavage": 0.791},
      {"variant": "A1G G29U", "self-cleavage": 0.358},
      {"variant": "G24A G45A", "self-cleavage": 0.122},
      {"variant": "G13A G47U", "self-cleavage": 0.446},
      {"variant": "G13A C20A", "self-cleavage": 0.09},
      {"variant": "C9U C25U", "self-cleavage": 0.404},
      {"variant": "C14A G17U", "self-cleavage": 0.361},
      {"variant": "C19U G24C", "self-cleavage": 0.126},
      {"variant": "U6C G44A", "self-cleavage": 0.63},
      {"variant": "C3U C20A", "self-cleavage": 0.07},
      {"variant": "A2C C14G", "self-cleavage": 0.0512},
      {"variant": "C25U A40G", "self-cleavage": 0.121},
      {"variant": "C27U U37C", "self-cleavage": 0.179},
      {"variant": "G29U A30U", "self-cleavage": 0.912},
      {"variant": "A10U G13C", "self-cleavage": 0.211},
      {"variant": "A30G G36C", "self-cleavage": 0.422},
      {"variant": "G17A A33G", "self-cleavage": 0.451},
      {"variant": "G45U", "self-cleavage": 0.902},
      {"variant": "G28C G38U", "self-cleavage": 0.64},
      {"variant": "C8U G38A", "self-cleavage": 0.572},
      {"variant": "U18G G45U", "self-cleavage": 0.0852},
      {"variant": "C9G G45C", "self-cleavage": 0.171},
      {"variant": "C21A G36A", "self-cleavage": 0.0703},
      {"variant": "C3G G28U", "self-cleavage": 0.253},
      {"variant": "G24A G47C", "self-cleavage": 0.11},
      {"variant": "A1U C8G", "self-cleavage": 0.0353},
      {"variant": "G13C G48C", "self-cleavage": 0.249},
      {"variant": "C9G U18G", "self-cleavage": 0.0467},
      {"variant": "A33G G38C", "self-cleavage": 0.878},
      {"variant": "C27G G36C", "self-cleavage": 0.0945},
      {"variant": "U18C G47C", "self-cleavage": 0.162},
      {"variant": "A2U G13U", "self-cleavage": 0.103},
      {"variant": "U12C G16U", "self-cleavage": 0.799},
      {"variant": "A11U G43A", "self-cleavage": 0.336},
      {"variant": "A35G G47U", "self-cleavage": 0.81},
      {"variant": "A2C C20A", "self-cleavage": 0.0642},
      {"variant": "A4U U18C", "self-cleavage": 0.027},
      {"variant": "C21G G24A", "self-cleavage": 0.0681},
      {"variant": "C9A C46A", "self-cleavage": 0.426},
      {"variant": "G42U G43U", "self-cleavage": 0.127},
      {"variant": "C26A G45C", "self-cleavage": 0.123},
      {"variant": "A33U G47A", "self-cleavage": 0.739},
      {"variant": "U12C C21U", "self-cleavage": 0.0795},
      {"variant": "C5A U12C", "self-cleavage": 0.462}
    ]}
  ]
}
